Numbering of substitutions follows the chain as printed.
B1: 93H2 (antibody, human IgG1, kappa, V domains shown)
VH: EVQLVQSGAEVKKPGASVKVSCKASGYTFTGYYMHWVRQAPGQGLEWMGWINPNSGATNFPQKFQGRVTMTRDTSITTAYMDLSRLRSDDTAVYYCARESGDDAFDIWGQGTMVTVSS
VL: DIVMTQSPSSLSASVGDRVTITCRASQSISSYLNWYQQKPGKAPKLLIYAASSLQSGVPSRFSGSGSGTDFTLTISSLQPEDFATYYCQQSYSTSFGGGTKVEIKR
notes: also called parental 93H2; 93H2 mAb
B2: Abcs35 (antibody, human IgG1, kappa)
heavy: EVQLVQSGAEVKKPGASVKVSCKASGYTFTGYYMHWVRQAPGQGLEWMGWINPKNGDTEFPQKFQGRVTMTRDTSITTAYMDLSRLRSDDTAVYYCARESGDDAFDIWGQGTMVTVSSASTKGPSVFPLAPSSKSTSGGTAALGCLVKDYFPEPVTVSWNSGALTSGVHTFPAVLQSSGLYSLSSVVTVPSSSLGTQTYICNVNHKPSNTKVDKKVEPKSCDKTHTCPPCPAPEAAGAPSVFLFPPKPKDTLMISRTPEVTCVVVDVSHEDPEVKFNWYVDGVEVHNAKTKPREEQYNSTYRVVSVLTVLHQDWLNGKEYKCKVSNKALPAPIEKTISKAKGQPREPQVYTLPPSREEMTKNQVSLTCLVKGFYPSDIAVEWESNGQPENNYKTTPPVLDSDGSFFLYSKLTVDKSRWQQGNVFSCSVMHEALHNHYTQKSLSLSPGK
light: DIVMTQSPSSLSASVGDRVTITCRASQSISSYLNWYQQKPGKAPKLLIYAASSLQSGVPSRFSGSGSGTDFTLTISSLQPEDFATYYCQQSVGLFFGGGTKVEIKRTVAAPSVFIFPPSDEQLKSGTASVVCLLNNFYPREAKVQWKVDNALQSGNSQESVTEQDSKDSTYSLSSTLTLSKADYEKHKVYACEVTHQGLSSPVTKSFNRGEC
notes: fully human IgG1; VH of Ab96 with VL of Ab123

Key:
[1] = molecular target: T1, Human ROBO2 KSR mutant overexpressed on HEK293 cells (human, UniProt Q9HCK4 22-1378); assay: mutagenesis study
T1 construct: R100K and K102R already in the entry
T1 sequence: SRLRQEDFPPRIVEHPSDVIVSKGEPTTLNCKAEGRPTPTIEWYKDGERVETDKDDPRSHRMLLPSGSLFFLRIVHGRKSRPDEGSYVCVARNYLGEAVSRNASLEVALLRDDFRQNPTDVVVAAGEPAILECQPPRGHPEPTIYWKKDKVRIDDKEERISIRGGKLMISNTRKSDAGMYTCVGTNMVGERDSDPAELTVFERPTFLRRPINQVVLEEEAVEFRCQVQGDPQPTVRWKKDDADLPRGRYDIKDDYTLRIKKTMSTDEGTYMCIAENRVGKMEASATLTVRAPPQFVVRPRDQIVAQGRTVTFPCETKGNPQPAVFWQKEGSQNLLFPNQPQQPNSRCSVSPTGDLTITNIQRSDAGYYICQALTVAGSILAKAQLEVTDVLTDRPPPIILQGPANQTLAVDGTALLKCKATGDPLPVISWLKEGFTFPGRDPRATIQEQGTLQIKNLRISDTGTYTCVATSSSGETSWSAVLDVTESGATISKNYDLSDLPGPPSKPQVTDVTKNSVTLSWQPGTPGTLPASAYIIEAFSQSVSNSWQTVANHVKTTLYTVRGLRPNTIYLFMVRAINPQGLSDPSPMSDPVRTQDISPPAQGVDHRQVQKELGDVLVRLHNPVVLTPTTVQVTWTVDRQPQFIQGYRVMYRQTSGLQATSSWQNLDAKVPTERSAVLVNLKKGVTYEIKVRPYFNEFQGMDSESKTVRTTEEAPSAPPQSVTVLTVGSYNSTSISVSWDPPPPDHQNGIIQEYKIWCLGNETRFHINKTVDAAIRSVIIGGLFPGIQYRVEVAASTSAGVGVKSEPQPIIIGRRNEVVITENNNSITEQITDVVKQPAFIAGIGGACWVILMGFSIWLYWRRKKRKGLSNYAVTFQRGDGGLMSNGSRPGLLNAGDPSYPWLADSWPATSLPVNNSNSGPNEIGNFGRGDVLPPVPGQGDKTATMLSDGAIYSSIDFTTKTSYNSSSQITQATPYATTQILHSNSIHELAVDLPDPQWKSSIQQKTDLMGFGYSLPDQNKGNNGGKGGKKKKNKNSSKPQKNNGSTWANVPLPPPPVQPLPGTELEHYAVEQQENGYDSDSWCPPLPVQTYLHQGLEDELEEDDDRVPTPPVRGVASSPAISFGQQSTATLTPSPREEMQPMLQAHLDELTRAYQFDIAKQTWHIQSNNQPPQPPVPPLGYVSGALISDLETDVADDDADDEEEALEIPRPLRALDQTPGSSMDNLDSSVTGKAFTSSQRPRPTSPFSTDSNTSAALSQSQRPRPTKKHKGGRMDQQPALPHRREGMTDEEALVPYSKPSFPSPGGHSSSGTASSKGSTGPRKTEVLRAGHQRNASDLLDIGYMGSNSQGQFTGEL

[2] = molecular target: T2, Human ROBO2 Ig 1,2 KSR mutant (human, UniProt Q7TPD3 31-220 (mouse entry), limits assumed); assay: Octet Red BLI, Abcs35 captured on AHC sensors, ROBO proteins in solution
T2 construct: recombinant protein; also called ROBO2-KSR mutant protein; Human ROBO2 Ig1-2 with the RSK mutated to KSR
T2 chain: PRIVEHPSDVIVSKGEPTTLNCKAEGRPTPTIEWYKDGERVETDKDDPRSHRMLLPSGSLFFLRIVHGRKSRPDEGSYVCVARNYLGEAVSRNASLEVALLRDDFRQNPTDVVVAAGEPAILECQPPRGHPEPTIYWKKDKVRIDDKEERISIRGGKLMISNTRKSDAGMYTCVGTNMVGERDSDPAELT
Description: Octet Red AHC (Anti-Human IgG FC) Sensors were loaded with Abcs35. The loaded sensors were then exposed to Human ROBO2 Ig1-2, Rat ROBO2 Ig 1-2, Human ROBO2 Ig1-2 with the RSK mutated to KSR as in ROBO1, or ROBO1 Ig1-2 then the sensors were moved to PBS only, lacking any ROBO1 or 2 proteins. The arrows indicate curves for each of the ROBO proteins tested.
Based upon the crystal structure described above, the following experiments were done to confirm the epitope specificity of 93H2 and/or affinity matured clones Abcs35. Using Octet Red, epitope specificity was confirmed biochemically. Abcs35, at 10 μg/ml, was captured on AHC sensors for 60 seconds. Recombinant human ROBO2 Ig1-Ig2, rat […], human ROBO2 containing the ROBO1 KSR sequence (ROBO2-KSR mutant), and human ROBO1 Ig1-Ig2, prepared at 100 nM, were used to interact with captured Abcs35. Association time was 100 seconds then dissociation was followed for 20 seconds. Abcs35 specifically bound human and rat ROBO2 but not human ROBO1 or the ROBO2-KSR mutant protein (FIG. 2).

Human ROBO2 Ig1-Ig2-His = molecular target: T3, Human ROBO2 Ig1-Ig2-His (human, UniProt Q9HCK4 31-220); assay: Octet and SPR, against the parental antibody
T3 construct: the His tag is named only in the SPR paragraphs; the Octet and ELISA paragraphs print 'ROBO2 Ig1-Ig2' without a tag; also called ROBO2 Ig1-2; Human ROBO2 Ig 1,2
T3 sequence: T2 chain with K70R, R72K

Row | Binder | binding result [1] | binding result [2] | fold affinity improvement (Human ROBO2 Ig1-Ig2-His) [fold]
1 | B1 | no binding |  | 
2 | B2 |  | no binding | ~300

Reference: patent US20200157212A1 (Pfizer, published 2020)
